# From the nanobody polyreactivity screen of Harvey et al. (2022)
# Experiment: yeast display, Sf9 membrane polyspecificity reagent, FACS + sequencing; frameworks hold sequencing errors
# Method in brief: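 Polyreactivity labels are assigned by the sorting gate from which each nanobody was recovered. The gates were low and high (top ~1%), set on anti-HA fluorescence for expression and streptavidin fluorescence for reagent binding. Before sorting, galactose-induced (36–48 hours) yeast display cells were stained for 1 hour at 4 °C with 10% biotinylated, detergent-solubilized Sf9 membrane reagent.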
row,Sequence,polyreactivity (PSR sort gate)
1,QVQLVESGGGLVQAGGSLRLSCAASGSTFDINAMGWYRQAPGKERELVAAITDSGGSTHYADSVKGRFTISRDNAKNTVSLQMNSLKPEDTAVYYCNADDYLVYAGSHYGYWGQGTQVTVSS,low polyreactivity
2,QVQLVESGGGLVQAGGSLRLSCAASGSTFDIYAMGCYRQAPGKERELVAAITFSGGSTYADSVKGRFTISRDNAKNTVYFQMNSLKPEDTAVYYCAVDGGEFSSYGYWGQGTQVTVSS,low polyreactivity
3,QVQLVESGGGLVQAGGSLRLSCAASGSTFDIYAMGWYRPAPGKERELVAVISGGDGSTYYADSVKGRFTISRDNAKNTVYLQMNSLKPEDTAVYYCAADYISPGYWDGEYDCWGQGTQVTVSS,low polyreactivity
4,QVQLVESGGGLVQAGGSLRLSCAASGSTFDIYAMGWYRQAPGKERELVAAISVSDVDTYYADSVKGRFTISRDNAKNTVYLQMNSLKPEDTAVYYCAAETPTHDEWGQGTQVTVSS,high polyreactivity
5,QVQLVESGGGLVQAGGSLRLSCAASGSTFDIYVMGWYRQAPGKEREFVAAITTTTGRTNYADSVKGRFTISRDYAKNTVYLQMNSLKPEDTAVYYCAAYVTWGKLWYGYWGQGTQVTVSS,high polyreactivity
6,QVQLVESGGGLVQAGGSLRLSCAASGSTFDKNTMGWYRQAPGKERELVAAISRSGGSTYYADSVKGRYTISRDNAKNTVYLQMNSLKPEDTAVYYCAAQSRYWTYDYWGQGTQVTVSS,high polyreactivity
7,QVQLVESGGGLVQAGGSLRLSCAASGSTFDKYAMGWYRQAPGKERELVAAISSGSSTSYADSVKGRFTISRDNAKNTVYLQMNSLKPEDTAVYYCAAEVAESIEDDYWGQGTQVTVSS,low polyreactivity
8,QVQLVESGGGLVQAGGSLRLSCAASGSTFDLYAMGWCRQAPGKEREWVAAITWSGDDTYYADSVKGRFTISRDNATNTVYLQMNSLKPEDTAVYYCAAAYAYWGQGTQVTVSS,low polyreactivity
9,QVQLVESGGGLVQAGGSLRLSCAASGSTFDLYAMGWYRQAPGKEREFVASISWRGTNTYYADSVKGRFTISRDNAKNTVYLQMISLKPEDTAVYYCYAVRGWTTRYDYWGQGTQVTVSS,high polyreactivity
10,QVQLVESGGGLVQAGGSLRLSCAASGSTFDNNGMGWYRQAPGKERELVASITFNVGSTYYADSVKGRFTISRDNAKNTVYLQMNSLKPEDTAVYYCAADDLNLSQALGYDYWGQGTQVTVSS,low polyreactivity
11,QVQLVESGGGLVQAGGSLRLSCAASGSTFDQNAMGWYRPAPGKERELVAAISGSGTRTYYADSVKGLFTISRDNAKKTVYLQMNSLKPEDTAVYYCRTGSGEYDYWGQGTQVTVSS,high polyreactivity
12,QVQLVESGGGLVQAGGSLRLSCAASGSTFDRYAMGWYRQAPGKERELVAAITRGGSTYYADSVKGRFTISRDNAKNTVYLQMNSLKPEDTAVYYCAARYRAYVKLTSYDWGQGTQVTVSS,high polyreactivity
13,QVQLVESGGGLVQAGGSLRLSCAASGSTFDSNVMGWYRQAPGKERELVAVINGSGSNTYYADSVKGRFTISRDNAKNTVYLQMNSLKPEDTAVYYCAVERSVYSYYYWGQGTQVTVSS,high polyreactivity
14,QVQLVESGGGLVQAGGSLRLSCAASGSTFDSYAMGWYRPAPGKERELVAAITDSGSSTYYADSVKGRFTISRDNAKNTVYLQMNSLKPEDTAVYYCATYDYHGWSYYRYDYWGQGTQVTVSS,low polyreactivity
15,QVQLVESGGGLVQAGGSLRLSCAASGSTFDSYAMGWYRQAPGKEREFVAAITWSGGRTYYADCVKGRFTISRDNAKNTVYLQMNSLKPEDTAVYDCSATDPWGWDYYYWGQGSQVTVSS,low polyreactivity
16,QVQLVESGGGLVQAGGSLRLSCAASGSTFDTNAMGWYRQAPGKERELVASISSAGSTNYADSVKGRFTISRDNAKNTVYLQMNSLKPEDTAVYYCAKYYGQFYPPTLGYWGQGTQVTVSS,low polyreactivity
17,QVQLVESGGGLVQAGGSLRLSCAASGSTFDTYAMGWSRPAPGKERELVAAITSGSSTNYADSVKGRFTISRDNAKNTVYLQMNSLKPEDTAVYYCAALGYNVSSRGYYYWGQGTQVTVSS,low polyreactivity
18,QVQLVESGGGLVQAGGSLRLSCAASGSTFDTYAMGWYRQAPGKERELVAAISVSGTSTSYADSVKGRFTISRDNAKNTVYLQMNSLKPEDTAVYYCNATDFSRNPGYARPEYDYWGQGTQVTVSS,low polyreactivity
19,QVQLVESGGGLVQAGGSLRLSCAASGSTFDTYAMGWYRQAPGKERELVATITNSVGNTYYADSVKGRFTISRDNAKNTVYLQMNSLKPEDTAVYYCAAETVYILAPGYYDYDYWGQGTQVTVSS,low polyreactivity
20,QVQLVESGGGLVQAGGSLRLSCAASGSTFDTYAMGWYRQAPGKERELVAVITTGGSTYYADSVKGRFTISRDNAKNTVNLQMNSLKPEDTAVYYCNAGYSVSRRRKYGYWGQGTQVTVSS,high polyreactivity
21,QVQLVESGGGLVQAGGSLRLSCAASGSTFDVNAMGWYRPAPGKERELVAAISFSGGSTYYADSVKGRFTISRDNAKNTVYLQMNSLKPEDTAVYYCAAEEWRSYYEEYDYWGQGTQVTVSS,low polyreactivity

row,Sequence,polyreactivity (PSR sort gate)
1,QVQLVESGGGLVQAGGSLRLSCAASGSTFDVNTMGWYRQAPGKERELVAAISSSGGDTYYADSVKGRFTISRDNAKNTVYLQMNSLKPDDTAVYYCAARLGFYTYGYTSWYTVYYWGQGTQVTVSS,low polyreactivity
2,QVQLVESGGGLVQAGGSLRLSCAASGSTFDVYAMGWYRQAPGKERELVAAIRSSGGSTFYADSVKGRFTISRDNAKNIVYLQMISLNPEDTAVYYCAARSFVVSGYNKYYEYGYWGQGTHVTVSS,low polyreactivity
3,QVQLVESGGGLVQAGGSLRLSCAASGSTFDVYAMGWYRQAPGKERELVAAISRSGGSTYYADSVKGRFTISRDNAKNTVYLQMNSLKPEDTAVYYCNARLARWGSYEYNYWGQGTQVTVSS,low polyreactivity
4,QVQLVESGGGLVQAGGSLRLSCAASGSTFDVYAMGWYRQAPGKERELVAGISSRGGRTYYADSVKGRFTISRDNAKNTVYLQMNSLKPEDTAVYYCAARYKGNPDRYGYWGQGTQVTVSS,high polyreactivity
5,QVQLVESGGGLVQAGGSLRLSCAASGSTFDVYAMGWYRQAPGKERELVASISITDGSTYYADSVKGRFTISRDNAKNTVYLPMNSLKPEDTAVYYCNAQYGGSYVEYDYWGQGTQVTVSA,low polyreactivity
6,QVQLVESGGGLVQAGGSLRLSCAASGSTFDVYTMGWYRQAPGKERELVATISGDDGSTYYADSEKGRFTISRDNAKNTVSLQMNSLKPEDTAVYYCAADYGGFPNYYSTGDYWGQGTQVTVSS,low polyreactivity
7,QVQLVESGGGLVQAGGSLRLSCAASGSTFDYNAMGWYRQAPGKERELVAAITTVGITYYADSVKGRFTISRDNAKNTVYLQMNSLKPEDTAVYYCAARCVRYGGRYDYWGQGTQVTVSS,high polyreactivity
8,QVQLVESGGGLVQAGGSLRLSCAASGSTFDYYAMGWYRQAPGKERELVATISWSGTDTYYADSVKGRFTISRDNAKNTVYLQMNSLKPEDTAVYYCAADTVYWRGWSGYYYWGQGTQVTVSS,low polyreactivity
9,QVQLVESGGGLVQAGGSLRLSCAASGSTFDYYAMGWYRQAPGKVRELGAAITTSGGSTYYADSVKGRFTISRDNAKNTVYLQINCLKPEDTAVYYCAAESYWYGTSPYYYLYEYDYWGQGTQVTVSS,high polyreactivity
10,QVQLVESGGGLVQAGGSLRLSCAASGSTFDYYDMGWYRPAPGKERELVAAISSGGDSTYYADSVKGRFTISRDNAKNTVYLQFNSLKPEDSAVYYCAAPDESYSVWRLDGLDYWGQGTQVTVSS,high polyreactivity
11,QVQLVESGGGLVQAGGSLRLSCAASGSTFDYYTMGWYRPAPGKERELVAAISSSGGSTYYADSVKGRFTISRDYAKNTVYLQMNSLKPEDTAVYYCAADPSPYGDEYDYWGQGTQVTVSS,low polyreactivity
12,QVQLVESGGGLVQAGGSLRLSCAASGSTFDYYVMGWYRQAPGKERELVASISSGGSTYYADSVKGRFTISRDNAKNTVYLQMNSLKPEDTAVYYCAARYYGRVGGYSIGYNYWGQGTQVTVSS,high polyreactivity
13,QVQLVESGGGLVQAGGSLRLSCAASGSTFEANAMGWNRPAPWKERELVAVITWTGGSTYYADSVKGRFTISRDNAKNTVYLQMNSLKPEDTAVYYCAADGVVPGRFFWPAHEYDYWGQGTQVTVSS,low polyreactivity
14,QVQLVESGGGLVQAGGSLRLSCAASGSTFEANAMGWYRQAPGNERELVAVITWTGGSTYYADSVKGRFTISRDNAKNTVYLQMNSLKPEDTAVYYCAADGVVPGRFFWPAHEYDYWGQGTQVTVSS,low polyreactivity
15,QVQLVESGGGLVQAGGSLRLSCAASGSTFEDNTMGWYRQAPGKEREFVADISNIGGDTTYADSVKGRFTISRDNAKNTVYLQMNSLKPEDTAVYYCAAVKGHSQVLSYGYWGQGTQVTVSS,low polyreactivity
16,QVQLVESGGGLVQAGGSLRLSCAASGSTFEHYAMGWYRQAPGKERELVAAISYTGGNTYYADSVKGRFTISRDNAKNTVYLQMNSLKPEDTAVYYCAAAPLYYHRRGYYYWGQGTQVTVSS,high polyreactivity
17,QVQLVESGGGLVQAGGSLRLSCAASGSTFEHYTMGWYRQAPGKERELVAAINGRGGSTYYADSVKGRFTISRDNAKNTVYLQMNSLKPEDTAVYYCAAVYGFRDYDYWGQGTQVTVSS,high polyreactivity
18,QVQLVESGGGLVQAGGSLRLSCAASGSTFELNAMGWYRQAPGKERELVAVITISGGNTYYADSVKGRFTISRDNAKNTVDLPMNSLKPDDTAVYYCAARPITTSITRYGFWGQGTQVTVSS,high polyreactivity
19,QVQLVESGGGLVQAGGSLRLSCAASGSTFENYVMGWDRQAPGKERELVAAISRGGGSTHYADSVKGRFTISRDNANNTVYLQMNSLKPEDTAVYYCAARYQPYVGSRSISTGIYYYWGQGTQVTVSS,low polyreactivity
20,QVQLVESGGGLVQAGGSLRLSCAASGSTFETNAMGLYRQATRKERELVAAISYNGGSTYADSVKGRFTISRDNAKNTVYLHMNSLKPEDSAVYYCAAVRSPRGLGGYWGQGTQVTVAS,low polyreactivity
